Experiment: yeast display, Sf9 membrane polyspecificity reagent, FACS + sequencing; frameworks hold sequencing errors
Summary of the method: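 Genes from sorted yeast were amplified by colony PCR, read by MiSeq 2 × 250 sequencing and filtered on CDR length. These cells carried a synthetic nanobody library in Saccharomyces cerevisiae BJ5465 and were sorted by FACS into low and high (top ~1%) gates on anti-HA and streptavidin fluorescence. Polyreactivity is labelled according to the gate of origin.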

Sequence | polyreactivity (PSR sort gate)
QFQLVESGGGLVQAGGSLRLSCAASGSTFGYYAMGWYRQAPGKERELVAAISWSGDSTYYADSVKGRFSISRDNAKNTVYLQMNSLKPEDTAVYYCAAEVEYGYDYWGQGTQVTVSS | high polyreactivity
QVPLVESGGGLVQAGGSLRLSCAASGRIFYNYAMGWYRQAPGKERELVAAISGSGGSTYYADSVKGRFTISRDNAKNTVYLQMNSLKPEDSSVYYCSTSGPQYYSRNFDYWGQGTQVTVSS | low polyreactivity
QVQLVESGGGLVQAGGSLRLSCAASGRTFRYNAMGWYRQAPGKERELVARITVIGDSTYYADSVKGRFTISRDNAKNTVYLQMNSLKPEDTAVYYCAAVSRRVSPYLSARDYWGQGTQVTVSS | high polyreactivity
QVQLVESGGGLGQAGGSLRLSCAASGLTFLDYAMGWSRQAPGKERELVAAITSGGSTNYADSVKGRFTISRDKAKNTVYLQMNSLKPEDTAVYYFATDLEVSAYDYWGQGTQVTVSS | low polyreactivity
QVQLVESGGGLVQAGGSLRLSCAASGNTFAVNAMGWYRQAPGKERELVAAISKRGGRTYYADSVKGRFTISRDNAKNTVYLQMNSLKPEDTAVYYCNTGYIFSSFYSSKYGYWGQGTQVTVSS | high polyreactivity
QVQLVESGGGLVQAGGSLSLSCADSGSTIYRYAMGWNRQAPGKEREFVATISRSGGGTYYADSEKGRLTISRDNAMNTVYLQMISLKPEDTSVYYCAARDVVQAGYYVKKYDYWGQGTQVTVSS | high polyreactivity
QVQLVESGGSIVQAGGSLRLSCAASGSTFDVYDMGWYRHAPGKERELVAAITTSGGGTYYADSVKGRFTISRDNAKNTGYLQMNSLKPEDTAVYYCAADTWRDGDDYWGQGTQVTVSS | low polyreactivity
QVQLVESGGGLVQAGGSLRLSCAASGSIFVLYAMGWYRQAPGKEREFVAAISRSGGSTYYADSVKGRFTISRDNAKNTVYLQMNSLKPEDTAVYYCAASSRLNRWNYYAFDYWGQGTQVTVSS | high polyreactivity
QVQLVESGGGLVQAGGSLRLSCAASGSIFAGYAMGWYRQAPGKERELVATITSGGSTNYADSVKGRFTISRDNAKNTVYFHMNSLKPEVTAVYYCAADVEDSIPSSYTGGEYDYWGQCTQVTVSS | low polyreactivity
QVQLVESGAGLVQARGSLRLSCAASGIILYVNAMGWYRQAPGKERELVAAISWGGGSTYYADSVKGRFTISRDNAKNNVYLQMNSLKPEDTAVYYCAAEFWSGYPTYTYDFWGQGTQVTVSS | low polyreactivity
QVQLVESGGGLVQAGGSLSLSCAASGLTFFGYAIGWYRQAPGKEREVVAAISTSGTRTYYADSVKGRFTISRDNAKNTVYLQMNSLKPEDTAVYYCATVRYQEYDYWGQGTQVTVSS | high polyreactivity
QVQLVESGGGLVQAGGSLRLSCAASGSTLRGNAMGWYRQAPGKEREFVAAISSSGGRTYYADSVKGRFTISRDNAKNTVYLQMNSLKPEDTAVYYCNADPYNYSRRYRLRKYGYWGQGTQVTVSS | high polyreactivity
QVQLVESGGGLVQAGGSLRLSCAASGSTFVSYAMGWYRQAPGKERELVAVISYRGGGTYYADSVKGRFTISRDNAKNTVYLQMNSLKPEDTAVYYCNAELWVLVSSYSYHYDGFDYWGQGTQVTVSS | low polyreactivity
QVQLVESGGGLVQAGGSLRLSCAASGSIFRVYGMGWYRQAPGKERELVAAITWSGGSTYYADSVKGRFTISRDNAKNTVYLQMNSLKPEDTAVYYCAARHKYAFWTAFGNYWGQGTQVTVSS | high polyreactivity
QVQLVESGGGLVQAGGTLRLSCAASGSTFSVNAMGWYRQAPGKERELVASITTSGGSTNYADSVKGRFTISRDNAKNTVYLQMNSLKPEDTAVYYCNDDTPGSSPSDYNYWGQGTQVTVSS | low polyreactivity
QVQLVESGGGLVQAGGSLRLSCAASGSNFLTYAMGRYRQAPGKEREFVAAISTSGVSTYYADSVKGRFTISRDNAKNTVYLQMNSLKPEDTAVYFCAAVYDLGYYGPIWAIVLDDYWGQGTQVTVSS | low polyreactivity
QVQLVESGGGLVQAGVSLRLSCAASGITLYRYVMGWNRQAPGKERELVADISGRGTSTYYADSVKGRFTSSRDYAKNTVYLQMYRLKPEATAVYYCNAEYTKTGALGIPYTYYYAEDYWGQGTQVTVSS | low polyreactivity
QVQLVESGGGLVQAGGSLRLSCAASGSTFRSYAMGWYRQAHGKERELVAAITSGGSTYYADSVKGRFTISRDNAKNTVYLQMNSLKPEDTAVYYCNARRRTRNVPGKRLRGGIYVYWGQGTQVTVSS | high polyreactivity
QVQLVESGGGLVQAGGSLRLSCAASGRIFDYYAMGWYRQAPGKERELVAAITVRGGTTYYADSVKGRFTISRDNAKNTVDLQMNSLKPEDTAVYYCAASDRRRYYYWGQGTQVTVSS | high polyreactivity
QVQLVESGRGLFHAGGSLRLSCAASGNTFGKYDMGWSIQAPGKERELVAAISKSSGSTYYADSVKGRFTISRDNAKNTVYFQMNSLKPEDTAVYYCAAEAYRYAWYDYWGQGTQVTVSS | high polyreactivity
QVQLVESGGGLVQAGGSLSLSCAASGSTFSPYAMGWYRQAPGKERELVAAITGSTGSTYYADSVKGRFTISRDNAKNTVYLQMNCLKPEDTAVYYCAAVSSNAGHVSRRRGYYWGQGTQVTVSS | high polyreactivity
HVQLVESGGGLVQAGGSLRLSCAASGSTFGRYVMGWHRQAPGKERELVAAISKNAGSTYYADSVKGRFTISRDNAKNTVYLKMASLKPEDTAVYYCAADWRTKGYDSLGQGTQVTVSS | high polyreactivity

Sequence | polyreactivity (PSR sort gate)
QVQLVESGGGLVQAGGSLRLSCAASGFTFYSYAMGWYRQAPGKERELVAAITRSGGNTYYADSVKGRFTISRDNAKNTVYLQMNSLKPEDTAVYYCAAPGKGISPSHYYWGQGPQVTVSS | high polyreactivity
QVQLVESGGGLVQAGGSLRLSCAASGSIFFYYAMGWYRQAPGKERELVATITSGGSTSYADSVKGRFTISRDNAKNTVYLQMNSLKPEDTAVYYCAARKVTKSTYNYWGQGTQVTVSS | low polyreactivity
QVQLVESGGGLVQAGGSLRLSCAASGSTFHWYDMGWYRQAPGKERELVAGINSSGDGTYYADSVKGRFTISRDNAKYTVYLQMNSLKPEDTAVYYCAAPWWYYGVPYQTNKYDYWGQGTQVTVSS | low polyreactivity
QVQLVESGGGLVQAGGSLRLSCAASGSISGYYAMGWYRQAPGKERDLVASIRYTGARTYYADSVKGRFTISRDNAKNTVYVQMNSLKPEDTAVYYCAADVKRERVWGGDYWGLGTQVTVSS | low polyreactivity
QVQLVESGGGLVQAGGRLRLSCADSGRTYGSNAMGWYRQAPGKERELVAAISGGDTTNYADSVKGRFTISRDNAKNTVYLQMNSLKPEDTAVYYCATDLRPAYDYWGEGTQVTVSS | low polyreactivity
QVQLVESGGGLVQAGGTLRLSCAASGRIFSRYVMGWYRQAPGKQRELVASISWSGGSTRYADSVKGRFTISRDNAKNTVYVQMNSLKPEDTAVYYCAARFILSKYGSGVRYNYWGQGTQVTVSS | high polyreactivity
QVQLVESGGGLVQSGGSLRLSCAASGIIFLDYVMVWYRQAPGKERELVAAISLSAGSTNYADSVKGRFTISRDNAKNTVYLQMNSLKPEDTAVYYCAAEVLAVRDDGYRSDEMDYWGQGTQVTVSS | low polyreactivity
QVQIVESGGGIVQAGVSLRLICAASGFTFIDNTMGWYRQAPGKERELVAAISSDGRTNYADSVKGRFTISRDNAKNNVYLQKNSLKPEYTAVYYCASEDYYWYVTGDLYHTAVYYWGQGTQVTVSS | low polyreactivity
QVQLVESGGGLVQAGGSLRLSCAASGSIFQYTMGWYRQAPVKEMELVAAITRSGSSTYYADSVKGRFTISRDNAKNTVYLQMNSLKPEDTAVYYCAHNIRRVLGYGSWGQGTQVTVSS | high polyreactivity
QVHLVESGGGLVQAGGSLLLSCDASGSIIKQYAMGWYRQAPGKERELVASIRWRDGSTYYADSVKGRFTISRDNAMNTVYLQMNSLKPEDTAVYYCAAYYCVWRYKYYYWGQGTQVTVSS | high polyreactivity
QVQLVESGGGLVQAGGSLRLSCAASGLTFIYKAMAWYRQAPGKERELVAAISGNGGDTYYADSVKGRFTISRDNAKKTVYLQMNSLKPEDTAVYYCAADYAYTPITWDEYWGQGTQVTVSS | low polyreactivity
QVQLVESGAGLVQAGGSLRLSCAASGSIYTLNAMGWYRQAPGKEMELVAAITSSGTGTYYADSVKGRFTISRDNAKNTVYLQMNSLKPEDTAVYYCAKDRPYWLSYGSWFKFNYWGQGTQVTVSS | low polyreactivity
QVQLVESGGGLVQAGGSLRLSCAASGLIFRRYAMGWYRQAPGKERELVATINSGGSTNYADSVKGRFTISRDNAKNTVYLQMNSLKPEDTAVYYCAAKKFRRFTKWYDYWGQGTQVTVSS | high polyreactivity
QVQLVESGGGLVQAGGSLRLSCAASGSIFIYNVMGWYRQAPGKERELVATIRGSGGSTYYADSVKGRFTISRDNAQNTVYLQMNSLKPEDTAVYYCARRDYPVQWGRAYNYWGQGTQVTVSS | high polyreactivity
QVQLVESGGGLVQAGGSLRLSCAASGRTFNWYAMGWYRQAPGKESELVAAISSRGGSTYADSVKGRFTISRDNAKNTVYLQMNSLTPEDTAVYYCNADLLPADAPLWVTGGDYWGQGTQVTVSW | low polyreactivity
QVQLVESGGGLVQAGGSLRLSCAASGFTLQSNAMGWYRQAPGKERELVAAISFRGGSTYYADSVKGRFTISRDNAKNTVYLQMNSLKPEDTAVYYCAAVQVHLREYDYWGQGSQVTVSS | low polyreactivity
QVQLVESGGGLVQAGGSLRLSCAASGRTFFTNAMGWSRQAPGKERELVATISQSGGSTYYADSVKGRFTISRDNAKNTVYLQMNCLKPEDTAVYYCAALSRYWVVRMDYWGQGTHVTVSS | high polyreactivity
QVQLVESGGGLVQAGGSLRLSCAASGRNFQVYAMGWYRQAPGKERELVAAISFSGDRTYYADSVKGRFTISRDNAKNTVYLQMNSLKPEDTAVYYCSADGFVYDLRARPGWVDYWGQGTQVTVSS | low polyreactivity
QVQRVESGGGLVQAGGSLRLSCAASGSIFTSNVRGWYRQAPGKERELDAAITITGTTNYADSVKGRFTISRDNAKNTVYFQMNRLKPEDTAVYYCAKDPVELSPADWRADYDYWGQGSQVTVSS | low polyreactivity
QVQLVESGGGLVQAGGSLRLSCAASGSIFSINAMGWYRQAPGKERELVAVISWIGGNTYYADSVKGRFTISRDNAKNTVYLQMNSLKPEDTAVYYCAVATGPVSYRRYYWGQGTQVTVSS | high polyreactivity
QVQLVESGGGLVQAGGSLRLSCAASGRIFAYYSMGWYRQAPGKERELVAAISRSGVSTYYADSVKGRFTISRDNAKNTVYLLMNSLKPEDTAVYYCAARWRSGFTSGDFWGQGTQVTVSS | low polyreactivity

Reference: the nanobody polyreactivity screen of Harvey et al. (2022)
